Measurements published in paper PMC5343089, “^1H, ^15N, ^13C backbone resonance assignments of human soluble catechol O-methyltransferase in complex with S-adenosyl-L-methionine and 3,5-dinitrocatechol” (Biomolecular Nmr Assignments, 2016).

Target: the molecule itself
Assay: SEC + native gel or EMSA + other: mass spectrometry; Superdex 75 26/60, 50 mM Tris-HCl pH 7.5, 50 mM NaCl, 10 mM DTT, 4 °C; two separated peaks; native gel electrophoresis and mass spectrometry not shown

B1: human soluble catechol O-methyltransferase (enzyme, UniProt P21964-2 1-221, looked up)
chain: QGDTKEQRILNHVLQHAEPGNAQSVLEAIDTYCEQKEWAMNVGDKKGKIVDAVIQEHQPSVLLELGAYCGYSAVRMARLLSPGARLITIEINPDCAAITQRMVDFAGVKDKVTLVVGASQDIIPQLKKKYDVDTLDMVFLDHWKDRYLPDTLLLEECGLLRKGTVLLADNVICPGAPDFLAHVRGSSCFECTHYQSFLEYREVVDGLEKAIYKGPGSEAGP
notes: Catechol O-methyltransferase, human, soluble isoform (S-COMT), EC 2.1.1.6; valine at the polymorphic position 108; 233 residues with the 12-residue tag, so 221 residues of S-COMT; Q belongs to the ENLYFQG site; 2H,15N,13C-labelled protein; Val108 allele; also called S-COMT; human S-COMT; source: E. coli BL21(DE3), pET21a, purified (His-Trap Ni-Sepharose, Superdex 75 size exclusion)
- stoichiometry N: 2
